B1: MMP1 (parent)
chain: MFFKDRFYMRTNPFYPEVELNFIS
B2: IFRG15 (parent)
chain: INRADYCPECYPDNPANRSLVLPW

Variants of: B1
Experiment: protein stability index of a GFP-peptide fusion (GPS, HEK-293T) (PSI 1-6); higher = more stable
Conditions: c terminus: a fixed tail appended
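Further: lentivirally expressed fusions sorted by FACS into six bins by GFP to DsRed ratio, PSI derived from sequencing read proportions per bin multiplied by bin number.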

Protein stability index of substitutions, site by site:
F3: N 1.73 | P 1.48 | H 1.89 | W 3.61 | Y 2.97 | T 2.11 | G 4.14 | D 1.85 | E 1.5 | S 2.9 | K 1.83 | I 2.64 | R 1.55 | V 2.82 | Q 3.42 | L 2.29
M1: K 2.94 | W 3.52 | A 1.89 | E 2.86 | H 2.05 | Y 1.86 | I 2.17 | C 2.83 | N 1.76 | D 2.24 | F 3.03 | R 2.2 | S 2.84 | V 3.89
D5: E 2.63 | H 2.78 | A 2.8 | T 3.47 | G 3.47 | Q 3.19 | M 2.63 | V 2.6 | P 3.51 | C 3.75 | L 2.49 | I 2.52 | S 2.64 | N 2.77
F2: T 2.29 | S 2.72 | D 2.71 | K 4.48 | V 2.75 | C 3.01 | P 2.06 | E 2.98 | N 1.93 | Q 2.26 | L 2.36 | R 4.3 | G 3.1 | M 2.02 | H 2.93 | I 2.59 | A 3.29
K4: V 1.49 | S 3.15 | M 2.3 | P 2.5 | H 3.26 | W 2.11 | N 2.26 | I 3.25 | F 3.7 | Q 4.05 | Y 3.55 | R 2.56 | G 1.72

Variants of: B2
Experiment: as above
Conditions: c terminus: a fixed tail appended

Protein stability index: each site, then its substitutions
P23: M 2.5 | L 1.57 | Q 1.87 | D 2.92 | W 2.4 | Y 2.09 | K 1.71 | C 1.67 | R 1.58 | S 2.83 | E 1.03 | T 1.59 | N 1.65 | H 1.65 | I 2.89
N14: K 2.25 | C 2.2 | G 2.83 | S 2.72 | T 1.6 | A 2.31 | Q 1.86 | V 2.04 | Y 2.08 | H 2.52 | W 1.03 | L 1.67 | D 2.52 | I 1.53 | R 2 | M 1.68 | E 2.64 | F 1.71 | P 2.28
W24: S 2.9 | E 2.99 | K 2.28 | A 2.19 | T 2.3 | D 3.89 | G 2.69 | R 1.77 | Y 2.12 | Q 2.24 | I 1.9 | M 2.23 | P 2.62 | L 1.8 | N 2.46 | C 2.31 | F 2.3 | H 2.37 | V 2.53
S19: P 2.4 | Q 2 | R 1.59 | W 1.99 | H 2.07 | A 2.16 | E 2.22 | N 1.8 | G 1.82 | F 1.27 | L 2.16 | D 2.3 | C 1.81 | I 1.72 | T 1.77 | K 2.14 | M 1.65 | Y 1.88 | V 1.41
P15: V 1.51 | G 2.48 | M 2.19 | H 2.46 | E 2.58 | F 1.44 | C 2.02 | Q 2.1 | W 2.19 | S 2.94 | R 2.07 | K 1.74 | T 1.9 | A 2.9 | D 2.12 | N 1.97 | L 1.97 | Y 1.84 | I 2.29
V21: K 1.98 | W 1.29 | N 2.3 | Q 2.12 | G 2.69 | L 2.53 | F 1.54 | T 2.43 | P 2.92 | C 1.82 | R 1.83 | H 1.84 | M 2.29 | A 2.54 | D 2.43 | S 1.97 | I 1.97 | E 2.29 | Y 1.99
L22: V 3 | D 2.15 | R 2.36 | C 2.12 | H 1.49 | P 2.93 | Q 2.35 | F 2.05 | A 2.69 | T 2.31 | N 2.65 | S 1.93 | M 2.37 | Y 2.17 | I 1.72 | E 2.44 | G 2.37 | K 2.04 | W 1.65
P12: I 1.56 | C 1.69 | Q 2.11 | E 2.46 | M 2.08 | L 1.9 | N 1.66 | K 2.1 | H 1.91 | D 2.7 | W 1.72 | R 2.05 | Y 2.26 | S 2.03 | V 1.84 | G 2.69 | A 2.04 | T 1.98 | F 1.78
L20: D 2.73 | E 2.9 | R 2.13 | M 2.67 | T 2.57 | C 2.06 | K 2.27 | S 2.28 | Y 1.86 | I 2.27 | G 2.48 | Q 2.02 | N 2.78 | V 2.44 | W 1.8 | P 2.31 | H 2.4 | F 1.79 | A 3.02
Y11: S 2.69 | T 2.32 | I 2.25 | W 2.1 | N 2.23 | V 2.8 | K 2.27 | R 2.72 | L 1.83 | D 3.28 | Q 2.58 | H 2.22 | E 2.73 | M 2.15 | F 2.2 | G 2.84 | P 3.15
A16: I 1.6 | Q 2.23 | P 2.15 | F 2.02 | H 1.71 | V 1.85 | N 2.4 | R 1.67 | K 1.94 | T 2.06 | L 1.86 | W 1.85 | E 2.42 | D 2.37 | Y 2.67 | G 2.04 | S 2.42 | C 1.69 | M 1.85
R18: T 1.35 | C 1.81 | E 2.13 | K 2.83 | W 1.69 | D 2.88 | S 2.27 | Y 1.44 | V 1.9 | I 1.82 | P 2.38 | G 1.99 | A 2.17 | N 2.22 | L 1.83 | M 2.06 | H 2.17 | Q 1.99 | F 2.32
D13: L 2.53 | H 2.07 | P 2.11 | M 2.25 | C 1.97 | K 1.68 | R 1.69 | Q 2.28 | Y 1.57 | W 2.18 | T 2.37 | A 1.94 | S 1.82 | F 1.56 | V 1.63 | E 1.86 | I 1.71 | G 1.98 | N 2.08
N17: L 1.68 | S 2.21 | R 1.51 | H 2.04 | P 1.89 | T 2.53 | D 2.1 | I 2.25 | Q 1.79 | W 1.6 | A 2.3 | F 1.54 | G 2.53 | M 1.91 | Y 1.74 | E 2.14 | K 1.8 | C 2.03 | V 1.79
